Experimental findings from the supplement of paper PMC12042874 are described below.

± gives the uncertainty stated by the source.

The data set can be described thus: amyloid nucleation score (Sup35N fusion, yeast selection) (log enrichment); library NNK2; higher = more nucleation; inactive = no reads after selection. Summed up: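 The nucleation score is the log enrichment of output over input reads, calculated with DiMSum and centred on the mode score of non-aggregating sequences. Sequences with under 100 input reads were excluded. Reads came from Illumina sequencing of plasmid inserts from psi-negative yeast expressing Sup35N fused to peptides of 20 random codons, induced 24 hours with 100 μM copper sulfate and grown 7 days at 30°C without adenine and uracil.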
For RCGVYRVTHSEAERSLSISL, the amyloid nucleation score turned out to be 0.698 ± 0.57.
On to YMRMKW, for which the amyloid nucleation score came out at 3.46 ± 0.079.
Next, IMELSFLSWVLRSKMDFHAE: 5.34 ± 0.066; VIYKSLHRLVISRVNVFFPV: -0.263 ± 0.65; QFLTLCSKSNVRTCYSHSCN: 2.75 ± 0.19.
Turning to HMCTFSIICKKVLMSFMGIL, the amyloid nucleation score was found to be 1.93 ± 0.14.
The substance YLMRVRYSLCGLVVSVVAQD showed an amyloid nucleation score of 0.856 ± 0.34.
Next, QGDWVEGV: 0.144 ± 0.79; SPKMF: -0.564 ± 0.46; CWFSTTGYDPLEPSFNLVLR: -1.58 ± 0.54.
LSSWS gave an amyloid nucleation score of -0.611 ± 0.44.
Next, LNFDLLTMFWT: 0.182 ± 0.79; RDNYEGLY: -1.05 ± 0.74; NMKGTPVYLSFYDCSRPVGW: 4.04 ± 0.11.
With LSMTKLGVIGTSCNFLLW, the amyloid nucleation score result was “inactive”.
In the case of ASAPEYHQVKIYIFQFTPRA it was 2.02 ± 0.094.
Next, LVHPALVVWKQYWVVRLRDV: 6.43 ± 0.044.
In the case of IGTYWYVKLWRYSYVYPYLD it was 0.665 ± 0.57; in that of YIRLATYSLYALDWAVRKNR, -0.548 ± 1.1.
YIVRNLVLLI: the amyloid nucleation score amounted to 5.577 ± 0.036.
Next, SAQNDEKFLDPVSVIPRCKS: 0.443 ± 0.56; SCVSTYDFNSIR: -0.484 ± 0.25.
Substance IVVSKVLLIWFPLLRRGANL showed an amyloid nucleation score of 0.159 ± 0.49.
For VNLSCPVMNRTSMMCVVYLH, the amyloid nucleation score came to 7.799 ± 0.052.
Next, RWYSPWSWY: 0.662 ± 0.36; RCEVAMDGVESVKSFPA: 0.697 ± 0.35; TVWDLPLVAFCKHGTDHLLS: -0.121 ± 1.1.
In the case of VMWRTRGTACSLIVRWVGMG it was 0.822 ± 0.25.
In the case of WSTLGIDVSSCT it was -1.52 ± 0.54; in that of RLCLYN, -1.2 ± 0.38; in that of GFICMVMDKCYYRGRNFVGV, -0.106 ± 0.44.
SNSGMTVKCNYVYSFVTGKS: the amyloid nucleation score came out at 0.816 ± 0.21.
Next, SLKITSYSVCVCCLCMNCNT: 7.6 ± 0.052.
In turn, ACLLIFLSTA yielded an amyloid nucleation score of 2.31 ± 0.078.
Next, RFGLISANLLSLDY: -0.938 ± 1.1; GVLGLAFDC: 0.662 ± 0.81.
Turning to QLQVSYYQRSGMFERFRLEW, the amyloid nucleation score worked out at 2.46 ± 0.18.
In the case of YVPDVLTMYYGHTFTFDCGR it was “inactive”; in that of FYVYFVCEKIES, -0.076 ± 0.79; in that of WESCWIHLFHLSIHLTTNFY, 2.08 ± 0.088.
In the case of GCKLPYE, the amyloid nucleation score was -1.39 ± 0.75.
Substance FHVEHGAWWCIGDRFVVPGF gave an amyloid nucleation score of 0.541 ± 0.2.
GVIKWKRQETLNHSWGSESE showed an amyloid nucleation score of 5.24 ± 0.072.
The substance YDKFPRNVGESYEHRCSWSE showed an amyloid nucleation score of 0.458 ± 0.8.
GLREKDN gave an amyloid nucleation score of -0.036 ± 0.32.
For FQGCIPFLFVNSWFSYSFVK, the amyloid nucleation score was -1.36 ± 1.1.
In the case of LRAHFWGDD it was 0.335 ± 0.31; in that of VRPCRP, 1.49 ± 0.55; in that of LLWNVGIVYSHMQVFVMRRY, 1.23 ± 0.13.
With QGFVPHRSIWHTSNLSDWFM, the amyloid nucleation score entry is “inactive”.
HESRGCSHKTNSMCGHLILL gave an amyloid nucleation score of -0.309 ± 0.45.
In the case of WEGLSGTSLVLSQCFAPFSS it was 2.17 ± 0.12; in that of CWLEKLGGSRCFNFNDNKLP, -1.19 ± 0.75; in that of VPFYVFSVIGMIYMHGWVEW, -0.748 ± 0.56.
In the case of LLLLTHYEAITR it was 0.305 ± 0.43; in that of NPDLNKT, 1.36 ± 0.39.
Turning to KELDLDFRCFQYYNVVVVPQ, the amyloid nucleation score is 2.33 ± 0.091.
In the case of SFVVRTQMSGCANSFDEKFN it was -0.479 ± 1; in that of CLFWG, 2.85 ± 0.11.
In the case of HACGIVHRPLLRD it was -0.191 ± 0.33; in that of SLVYL, 1.1 ± 0.13.
In the case of LSHILMI it was “inactive”; in that of QKYLYQGCHLI, -1.24 ± 0.32.
With LGVVWLS, the amyloid nucleation score was -0.405 ± 0.3.
On to KSCGLLAYDT, for which the amyloid nucleation score entry was “inactive”.
RFCFVTIYSHRGVYANRMGM showed an amyloid nucleation score of 4.31 ± 0.075.
Next, MKVVNCGCKHIFLRHCYALR: -0.605 ± 0.45; LFVLK: -0.843 ± 0.21; QICNARFLLLLRTQALEQCA: 0.499 ± 0.56.
PMWRVFAFYRWVALMSLTRI: the amyloid nucleation score entry is “inactive”.
Next, NQSWRVVRQVCVEETRMMCG: 0.89 ± 0.23; VYIFQGMR: -0.302 ± 0.46.
In the case of FACIPIQCIGISGRGSRDRR it was 8.017 ± 0.044.
KMSYVYP: the amyloid nucleation score is -0.622 ± 0.41.
In the case of TGLCHPIGLPDRFRYIIRSL it was -0.789 ± 0.55; in that of SSTAVSQILH, “inactive”.
In the case of FRLIQWWARWIVFFGSTSLH it was -0.804 ± 0.45.
In the case of NSLCLLNRQ it was 0.241 ± 0.54.
RLLLRALYNPEYSRTQC yielded an amyloid nucleation score of -1.43 ± 0.64.
NIARNFRYRM returned an amyloid nucleation score of -1.86 ± 1.1.
As to WNVSGC, the amyloid nucleation score was -0.474 ± 0.55.
Turning to DKYGFSSVSGVTEDFVDGLM, the amyloid nucleation score was found to be 0.736 ± 0.6.
Next, IMLAVYPIIEGFIVDNMHRI: -1.25 ± 1.1; RTMLSGLLGYRSRSLADSPF: -0.199 ± 0.76.
In the case of QWYPNFHFHAISLCKYTGQG, the amyloid nucleation score was determined as 0.017 ± 0.19.
In the case of KFMARDLRTYFIALQPRCKD it was 6.614 ± 0.05; in that of LIVCLFISFFAYELCYESAF, 0.403 ± 0.62.
As to VEGTIRKRFGVWKYVLAPWL, the amyloid nucleation score is -0.267 ± 0.38.
Turning to YTLCTMKLREWNRTSTWPSL, the amyloid nucleation score is -0.003 ± 0.39.
As to LGVTLFFQGDSTTRWDLYPV, the amyloid nucleation score result was “inactive”.
In the case of FRFLDNELQNRGRRMYQLGY it was -0.465 ± 1.
NFKWVVAVMG had an amyloid nucleation score of 0.789 ± 0.2.
The substance PYTSSLLLQDRVLARGAYCR had an amyloid nucleation score of 1.25 ± 0.36.
Next, TYNKYK: -1.08 ± 0.78.
In the case of FVIFVMNHLWFFWIVWEDRE it was -1.26 ± 1.1; in that of YQARVTMCIPAWTMSECSQC, -1.01 ± 0.76.
In the case of LYNRRPFPYGYGTGLCPQRI it was -0.047 ± 0.79.
KGDRKKDCMPDLVYRKLSGV displayed an amyloid nucleation score of 0.798 ± 0.67.
Next, PDNLCMKPFLIAGYYVPTTA: -1.55 ± 0.61.
In the case of SISLCGVGVRWESVTAGNVC, the amyloid nucleation score was 0.51 ± 0.36.
Next, FLGDFRVCLF: “inactive”; ANRFSALFGPLLRVAPPKNS: 1.18 ± 0.24; RFSLRRNCAMAQWLISATCS: 0.37 ± 0.3.
On to WKVSLGWNSHMCAGMETLWM, for which the amyloid nucleation score worked out at 4.18 ± 0.048.
Substance YMLRIRTMSVPVFPVGFLGL gave an amyloid nucleation score of -0.275 ± 0.56.
